Results taken from PMC9119680.

Assays:
Assay in all cases: Co-IP with immunoblot quantification
SNAPIN = SNAPIN (UniProt Q9Z266); conditions: read off a plot
PALLIDIN = PALLIDIN (UniProt Q9R0C0); conditions: uninfected cells cultured overnight; IP: BLOS1; parent: est. 100; read off a plot
BLOS2 = BLOS2 (UniProt Q9CWG9); conditions: uninfected cells cultured overnight; IP: BLOS1; parent: est. 100; read off a plot
KXD1 = KXD1 (UniProt Q80XH1); conditions: uninfected cells cultured overnight; IP: BLOS1; parent: est. 100; read off a plot
Chain of UniProt Q80XH1 (Q80XH1 whole entry): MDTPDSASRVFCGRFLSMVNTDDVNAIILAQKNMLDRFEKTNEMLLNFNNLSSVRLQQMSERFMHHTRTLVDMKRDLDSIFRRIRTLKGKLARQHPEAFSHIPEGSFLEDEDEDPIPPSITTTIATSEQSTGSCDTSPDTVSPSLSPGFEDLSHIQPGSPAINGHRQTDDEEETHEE

Chain of UniProt Q9Z266 (Q9Z266 whole entry): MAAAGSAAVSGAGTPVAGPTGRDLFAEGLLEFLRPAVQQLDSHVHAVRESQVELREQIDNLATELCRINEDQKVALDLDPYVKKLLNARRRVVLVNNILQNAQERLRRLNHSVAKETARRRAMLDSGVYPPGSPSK
Chain of UniProt Q9R0C0 (Q9R0C0 whole entry): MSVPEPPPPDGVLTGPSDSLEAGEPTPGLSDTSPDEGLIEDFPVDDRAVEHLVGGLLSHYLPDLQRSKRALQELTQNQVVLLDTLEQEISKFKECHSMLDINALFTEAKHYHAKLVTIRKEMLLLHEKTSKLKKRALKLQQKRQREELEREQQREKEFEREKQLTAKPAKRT
Chain of UniProt Q9CWG9 (Q9CWG9 whole entry): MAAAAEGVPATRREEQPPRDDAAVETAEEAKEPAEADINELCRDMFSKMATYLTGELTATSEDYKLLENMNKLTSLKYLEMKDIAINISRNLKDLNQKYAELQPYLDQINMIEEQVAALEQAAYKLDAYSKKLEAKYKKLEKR

## BLOS1 [biogenesis of lysosome-related organelles complex-1 (BLOC-1) subunit 1] (from UniProt O55102) mBloc1s1 (first XAT hexapeptide-repeat motif EALDVH changed to EVVDH or EVDH)
SNAPIN; parent: est. 0.67
  response: 0.07
SNAPIN; parent: est. 1.0
  response: 0.18
SNAPIN; uninfected cells cultured overnight, IP: BLOS1, parent: est. 100
  percent of parent: 10%
PALLIDIN
  percent of parent: 22%
BLOS2
  percent of parent: 5%
KXD1
  percent of parent: 10%
